These results are taken from PMC3236736, “Jamb and Jamc Are Essential for Vertebrate Myocyte Fusion” (PLoS Biology, 2011).

B1: Jamb extracellular domain fused to rat Cd4 domains 3 and 4 (Jamb-Cd4d3+4-6H; Jamb-Cd4d3+4-bio) (domain or fragment, zebrafish, UniProt A0A0R4IGV4 19-226, looked up)
chain: VTVSSRNPKVEVHEFSDAELSCEFKTEKDTNPRIEWKRKDKEKDVSFVYYGERFVGPFQDRADIEGATVRLRRVTQADAGEYRCEVSAPSDSISLGETNVTLRVLVPPQTPSCDVPSSALTGSQVELRCRDRHSIPPAVYTWYKDNRALPIRHPNATYTVNEFTGVLIPQSHYNPGTVCQHCMYHPNYHIPNTQLTTTFQTHDLNVAA
notes: Jamb (official symbol jam2a), zebrafish, Entrez Gene 100005261; Two forms with the same ectodomain were made; They are written as one molecule because the protein stood against itself in the homophilic test; also called Jam2a; zebrafish JAM-B orthologue; source: expressed as a soluble fusion protein, purified; not shown: rat Cd4 domains 3 and 4, C-terminal, kept; His6, C-terminal, kept
B2: Jamc extracellular domain fused to rat Cd4 domains 3 and 4 (Jamc-Cd4d3+4-6H; Jamc-Cd4d3+4-bio) (domain or fragment, zebrafish, UniProt A3KPA0 24-235, looked up)
chain: VLLKSTNSKPWVNEFESIELSCMIESITTTKPRIEWKKIKNGDPSYVYFDNQISGDLERRAKIREPATLVILNATRSDSADYRCEVTAPNDQKSFDEILISLTVRVKPVVPRCSVPKSIPVGKPAELHCLEDEGYPKSQYQWFRNKEEIPLDPKSSPKFFNSTYTLDGEMGTLKFSAVRKEDAGEYYCRAKNEAGISECGPQMMEVYDINIA
notes: Jamc (official symbol jam3b), zebrafish, Entrez Gene 569217; Two forms with the same ectodomain were made; They are written as one molecule because the protein stood against itself in the homophilic test; also called Jam3b; zebrafish JAM-C orthologue; source: expressed as a soluble fusion protein, purified; not shown: rat Cd4 domains 3 and 4, C-terminal, kept; His6, C-terminal, kept

For experiment [1], the target named is B2. In words: SPR; equilibrium binding analysis with soluble recombinant extracellular domains; Jamc analyte; essentially as in ref. 33. The conditions noted are these: both partners purified.
Experiment [2] concerns the target B1. In words: SPR; dissociation phase averaged over three concentrations of purified Jamc-Cd4d3+4-6H or Jamb-Cd4d3+4-6H analyte, fitted to a first-order decay; homophilic and heterophilic interactions. The conditions noted are these: both partners purified. A general note: SPR reads the build-up and loss of mass on a sensor chip optically.

Turning to B1, the Kd (commonly the concentration at which binding is half-saturated) in experiment [1] is about 4.7 µM. As to B2, the stoichiometry N (as a rule, a count of units in the complex or per binding partner) in experiment [2] came to 1.
